Laboratory results taken from the supplement of paper PMC7125110.
± gives the standard error. For some of these results: Fewer inactive variants are shown than the library holds.

B1: glmS ribozyme (parent)
chain: AUAAAAGCGCCAGAACUACAGAAAUGUAGUUGACGAGGAGGAGGUUUAUCGAAUUUUCGGCGGAUGCCUCCAAA

Key:
Details in all cases: with glucosamine-6-phosphate
glucosamine-6-phosphate [1] = variants of: B1; assay: kcat; higher = faster cleavage; RNA array
Method in brief: (§1)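 A hybridised Cy3 probe tracked barcoded ribozyme variants, transcribed in situ by E. coli RNA polymerase on sequenced MiSeq chips, at 37 °C. The variants received 40 μM to 10 mM glucosamine-6-phosphate in HEPES/KCl/Mg(OAc)2 buffer. kobs came from decay fits and kcat and KM from weighted Michaelis–Menten fits.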

glucosamine-6-phosphate [2] = variants of: B1; assay: KM; higher = weaker cofactor use; RNA array
Method in brief: as §1

glucosamine-6-phosphate [3] = variants of: B1; assay: self-cleavage kobs at 640 uM GlcN6P; higher = faster cleavage; RNA array
Method in brief: as §1

glucosamine-6-phosphate [4] = variants of: B1; assay: self-cleavage kobs at 2500 uM GlcN6P; higher = faster cleavage; RNA array
Method in brief: as §1

glucosamine-6-phosphate [5] = variants of: B1; assay: self-cleavage kobs at 10000 uM GlcN6P; higher = faster cleavage; RNA array
Method in brief: as §1

glucosamine-6-phosphate [6] = variants of: B1; assay: self-cleavage kobs at 160 uM GlcN6P; higher = faster cleavage; RNA array
Method in brief: as §1

glucosamine-6-phosphate [7] = variants of: B1; assay: self-cleavage kobs at 40 uM GlcN6P; higher = faster cleavage; RNA array
Method in brief: as §1

Variant	kcat (glucosamine-6-phosphate [1])	KM (glucosamine-6-phosphate [2])	self-cleavage kobs at 640 uM GlcN6P (glucosamine-6-phosphate [3])	self-cleavage kobs at 2500 uM GlcN6P (glucosamine-6-phosphate [4])	self-cleavage kobs at 10000 uM GlcN6P (glucosamine-6-phosphate [5])	self-cleavage kobs at 160 uM GlcN6P (glucosamine-6-phosphate [6])	self-cleavage kobs at 40 uM GlcN6P (glucosamine-6-phosphate [7])
AUAAAAGCGCCAGAACUACAGAAAUGUAGUUGACGAGGUGGAGCUUUAUCGAAUUUUCGGCGGAUGCCUCCAAA	0.000268 ± 4.5e-05 s⁻¹	1920 ± 770 µM	6.01e-05 ± 1.7e-05 s⁻¹	0.0002 ± 3.9e-05 s⁻¹	0.000212 ± 3.2e-05 s⁻¹		
AUAAAAGCGCCAGACCUACAGAAAUGUACUUGACGAAGAGGAGGUUUAUCGAAUUUUCGGUGGAUGCCUCCAAA	< 1e-05 s⁻¹						
AUAAAAGCGCCAGAAUUACAGAAAUGUAGUUGACGAGGAGGAGGUUUAUCGAAUUUUCGGCGGUUGCCUCCAAA	9.47e-05 ± 1.3e-05 s⁻¹			7.64e-05 ± 1.2e-05 s⁻¹	8e-05 ± 6.6e-06 s⁻¹		
AUAAAAGCGCCAGAACUACAGAAAUGUAGUUGACGAGGAGGAGGUUUAUCGAAUUUUCGGCGGUUGCCGCCAAA	4.17e-05 ± 1.2e-05 s⁻¹			5.01e-05 ± 1.9e-05 s⁻¹		4.51e-05 ± 1.8e-05 s⁻¹	
AUAAAAGCGCCAGAACUACAGAAAUGUAGUUGACGAGGAGCAGGUUUAUCGACUUUUCGGCGGAUGCCUCCAAA	0.000159 ± 1.5e-05 s⁻¹	3660 ± 720 µM	1.93e-05 ± 9.5e-06 s⁻¹	6.77e-05 ± 9.6e-06 s⁻¹	0.000115 ± 1.5e-05 s⁻¹		
AUAAAAGCGCCAGAACUACAGAAAUGUAGUUGACGAGGAGGAGGUUUAUCGAAUUUUCGGCCGAUGCGUCCAAA	1.08e-05 ± 2.7e-06 s⁻¹				< 1e-05 s⁻¹		
AUAAAAGCGCCAGAACUACAGAAAUGUAGUUGGCGAGGAGGAGGUUUAUCGAAUUUUCGGCGGAUGCCACCAAA	3.15e-05 ± 1.4e-05 s⁻¹					4.13e-05 ± 1.5e-05 s⁻¹	
AUAAAAGCGCAAGCACUACAGAAAUGUAGUUGACGAGGAGGAGGUUUAUCGAAUUUUCGGCGGAUGCCUCCAAA	6.31e-05 ± 3.4e-06 s⁻¹	2820 ± 410 µM		3.05e-05 ± 1.3e-05 s⁻¹	4.9e-05 ± 1.5e-05 s⁻¹		
AUAAAAGCGCCAGAACUACAGAAAUGUAGUUGACGAGGAGGAGGUUUAACGAAUUUUCGGCGGAUGCGUCCAAA	2.5e-05 ± 5.3e-06 s⁻¹						
AUAAAAGCGCCUGAACUACAGAAAUGUAGUUGACGAGGAUGAGGUUUAUCGAAUUUUCGGCGGAUGCCUCCAAA	0.0088 ± 0.0017 s⁻¹	1410 ± 390 µM	0.00235 ± 0.00038 s⁻¹	0.00609 ± 0.00085 s⁻¹	0.00785 ± 0.00081 s⁻¹	0.000749 ± 8.6e-05 s⁻¹	0.000308 ± 2.8e-05 s⁻¹
AUAAAAGCGCUAGAACUACAGAAAUGUAGUUGACGAGGAGGAGGUUUAUCGAAUUUUCGGCGGAGGCCUCCAAA	0.000263 ± 6.3e-05 s⁻¹	2580 ± 1200 µM	6.28e-05 ± 3.1e-05 s⁻¹		0.000227 ± 9.2e-05 s⁻¹		< 1e-05 s⁻¹
AUAAAAGCGCCAGAACUACAGAAAUGUAGUUGACGAGGAGGAGGUUUAACGAGUUUUCGGCGGAUGCCUCCAAA	2.25e-05 ± 2.1e-06 s⁻¹	3410 ± 1000 µM					
